Among the data in patent US20140186348A1 (published 2014) are IC50 and Kd values, retold here.

Where two headings read alike, the source gives them in different places.

Experiment [1] deals with T1, human properdin (human, UniProt P27918 28-469). The experiment is described as follows: ELISA, inhibition of properdin binding to C3b. Background: In an ELISA, binding on a coated surface is turned into a signal by an enzyme label.
For experiment [2], the target named is T1, human properdin. The experiment is described as follows: ELISA.
Experiment [3] has as its target T1, human properdin. The experiment is described as follows: ELISA. This is another data set of the same source.
The target of experiment [4] is T1, human properdin. The experiment is described as follows: ELISA. This is another data set of the same source.

T1 sequence (P27918 28-469): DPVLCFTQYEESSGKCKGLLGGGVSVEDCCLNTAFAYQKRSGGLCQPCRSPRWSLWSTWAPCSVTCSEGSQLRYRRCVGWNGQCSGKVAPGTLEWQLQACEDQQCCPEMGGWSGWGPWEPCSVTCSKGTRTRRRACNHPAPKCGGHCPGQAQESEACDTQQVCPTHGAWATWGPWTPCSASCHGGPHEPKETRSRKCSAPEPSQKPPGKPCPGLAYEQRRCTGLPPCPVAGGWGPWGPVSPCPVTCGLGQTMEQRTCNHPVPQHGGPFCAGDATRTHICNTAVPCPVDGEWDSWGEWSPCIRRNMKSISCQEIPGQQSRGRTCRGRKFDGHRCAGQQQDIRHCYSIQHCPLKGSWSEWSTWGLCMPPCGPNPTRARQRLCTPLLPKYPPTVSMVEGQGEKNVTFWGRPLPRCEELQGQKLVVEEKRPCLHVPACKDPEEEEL

B1: NM9401-IgG (murine anti-properdin monoclonal antibody, IgG1) (antibody, V domains shown)
VH: QVQLQQSAPELARPGASVKMSCTASGYIFTNYPIHWVKQRPGQGLEWIGFIDPGGGYDEPDERFRDRATLTADKSSSTAYMQLSSLTSEDSAIYYCARRGGGYYLDYWGQGTTLTVSS
VL: DIQMTQTTSSLSASLGDRVTISCRASQDISFFLNWYQQKPDGTVKLLIYYTSRYHSGVPSRFSGSGSGTDFSLTINNLEQEDFATYFCQHGNTLPWTFGGGTKLEIKR
For the molecule B1, the IC50 – broadly, the concentration that gives 50% inhibition – with human properdin [1] came out at 10.7 nM. The Kd (as a rule, the free concentration of one partner at which half of the binding sites on the other are occupied at equilibrium, for simple one-to-one binding) in the experiment with human properdin [2] came out at 0.256 nM; with human properdin [3], 0.101 nM.

B2: NM9401-Fab (Fab, V domains shown)
VH: QVQLQQSAPELARPGASVKMSCTASGYIFTNYPIHWVKQRPGQGLEWIGFIDPGGGYDEPDERFRDRATLTADKSSSTAYMQLSSLTSEDSAIYYCARRGGGYYLDYWGQGTTLTVSS
VL: DIQMTQTTSSLSASLGDRVTISCRASQDISFFLNWYQQKPDGTVKLLIYYTSRYHSGVPSRFSGSGSGTDFSLTINNLEQEDFATYFCQHGNTLPWTFGGGTKLEIKR
Molecule B2 displayed a Kd in the experiment with human properdin [3] of 0.103 nM.

B3: BAP010hum10 (humanized anti-properdin monoclonal antibody) (antibody, V domains shown)
VH: QVQLQESGPGLVKPSQTLSLTCTVSGYIFTNYPIHWVRQATGQGLEWMGFIDPGGGYDEPDERFRDRVTITADKSTSTAYMELSSLRSEDTAVYYCARRGGGYYLDYWGQG
VL: DIQMTQSPSSLSASVGDRVTITCRASQDISFFLNWYQQKPGKAPKLLIYYTSRYHSGIPPRFSGSGYGTEFTFTISSLEAEDAATYYCQHGNTLPWTFGQG
In the experiment with human properdin [4], B3 yielded a Kd of 0.0236 nM.

B4: BAP010hum03 (humanized anti-properdin monoclonal antibody) (antibody, V domains shown)
VH: EVQLVQSGAEVKKPGESLRISCKGSGYIFTNYPIHWIRQSPSRGLEWLGFIDPGGGYDEPDERFRDRVTISADKSISTAYLQWSSLKASDTAMYYCARRGGGYYLDYWGQG
VL: DIQMTQSPSSLSASVGDRVTITCRASQDISFFLNWYQQKPGKAPKLLIYYTSRYHSGVPSRFSGSGSGTEFTLTISSLQSEDFAVYYCQHGNTLPWTFGQG
In the case of B4, the Kd with human properdin [4] turned out to be 0.0207 nM.

B5: NM9401-F(ab′)2 (other)
VH: QVQLQQSAPELARPGASVKMSCTASGYIFTNYPIHWVKQRPGQGLEWIGFIDPGGGYDEPDERFRDRATLTADKSSSTAYMQLSSLTSEDSAIYYCARRGGGYYLDYWGQGTTLTVSSAKTT
VL: DIQMTQTTSSLSASLGDRVTISCRASQDISFFLNWYQQKPDGTVKLLIYYTSRYHSGVPSRFSGSGSGTDFSLTINNLEQEDFATYFCQHGNTLPWTFGGGTKLEIKRADAAPTVSIFPPSSEQLTSGGASVVCFLNN
The molecule B5 returned a Kd with human properdin [3] of 0.118 nM.

B6: BAP010hum02 (humanized anti-properdin monoclonal antibody) (antibody, V domains shown)
VH: QVQLQESGPGLVKPSQTLSLTCTVSGYIFTNYPIHWVRQAPGKGLEWVSFIDPGGGYDEPDERFRDRVTISVDTSKNQFSLKLSSVTAADTAVYYCARRGGGYYLDYWGQG
VL: EIVLTQSPATLSLSPGERATLSCRASQDISFFLNWFQQRPGQSPRRLIYYTSRYHSGIPPRFSGSGYGTDFTLTINNIESEDAAYYFCQHGNTLPWTFGQG
Consider B6, for which, in the experiment with human properdin [4], the Kd was 0.0138 nM.
